Experimental data taken from IntAct's records for PubMed 26226295.

B1: EH domain-containing protein 3 (Homo sapiens), Q9NZN3 (parent)
chain: MFSWLGTDDRRRKDPEVFQTVSEGLKKLYKSKLLPLEEHYRFHEFHSPALEDADFDNKPMVLLVGQYSTGKTTFIRYLLEQDFPGMRIGPEPTTDSFIAVMQGDMEGIIPGNALVVDPKKPFRKLNAFGNAFLNRFVCAQLPNPVLESISVIDTPGILSGEKQRISRGYDFAAVLEWFAERVDRIILLFDAHKLDISDEFSEVIKALKNHEDKMRVVLNKADQIETQQLMRVYGALMWSLGKIVNTPEVIRVYIGSFWSHPLLIPDNRKLFEAEEQDLFRDIQSLPRNAALRKLNDLIKRARLAKVHAYIISSLKKEMPSVFGKDNKKKELVNNLAEIYGRIEREHQISPGDFPNLKRMQDQLQAQDFSKFQPLKSKLLEVVDDMLAHDIAQLMVLVRQEESQRPIQMVKGGAFEGTLHGPFGHGYGEGAGEGIDDAEWVVARDKPMYDEIFYTLSPVDGKITGANAKKEMVRSKLPNSVLGKIWKLADIDKDGMLDDDEFALANHLIKVKLEGHELPNELPAHLLPPSKRKVAE
partner: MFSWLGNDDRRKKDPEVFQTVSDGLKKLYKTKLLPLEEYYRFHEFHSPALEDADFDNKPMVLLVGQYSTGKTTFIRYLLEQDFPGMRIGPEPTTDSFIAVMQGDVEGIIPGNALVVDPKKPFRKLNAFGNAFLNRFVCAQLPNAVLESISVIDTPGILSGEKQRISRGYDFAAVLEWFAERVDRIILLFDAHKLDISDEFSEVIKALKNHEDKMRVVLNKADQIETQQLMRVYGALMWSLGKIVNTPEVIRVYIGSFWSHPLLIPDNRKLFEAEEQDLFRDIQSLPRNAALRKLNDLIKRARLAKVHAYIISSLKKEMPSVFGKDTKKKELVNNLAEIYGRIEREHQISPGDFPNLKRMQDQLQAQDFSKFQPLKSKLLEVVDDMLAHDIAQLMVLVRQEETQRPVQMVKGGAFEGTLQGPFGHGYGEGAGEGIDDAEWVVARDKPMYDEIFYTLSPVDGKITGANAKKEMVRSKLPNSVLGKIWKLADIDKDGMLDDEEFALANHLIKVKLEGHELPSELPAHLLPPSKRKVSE
B2: EH domain-containing protein 3 (Homo sapiens), Q9NZN3 (parent)
chain: B1 chain
partner: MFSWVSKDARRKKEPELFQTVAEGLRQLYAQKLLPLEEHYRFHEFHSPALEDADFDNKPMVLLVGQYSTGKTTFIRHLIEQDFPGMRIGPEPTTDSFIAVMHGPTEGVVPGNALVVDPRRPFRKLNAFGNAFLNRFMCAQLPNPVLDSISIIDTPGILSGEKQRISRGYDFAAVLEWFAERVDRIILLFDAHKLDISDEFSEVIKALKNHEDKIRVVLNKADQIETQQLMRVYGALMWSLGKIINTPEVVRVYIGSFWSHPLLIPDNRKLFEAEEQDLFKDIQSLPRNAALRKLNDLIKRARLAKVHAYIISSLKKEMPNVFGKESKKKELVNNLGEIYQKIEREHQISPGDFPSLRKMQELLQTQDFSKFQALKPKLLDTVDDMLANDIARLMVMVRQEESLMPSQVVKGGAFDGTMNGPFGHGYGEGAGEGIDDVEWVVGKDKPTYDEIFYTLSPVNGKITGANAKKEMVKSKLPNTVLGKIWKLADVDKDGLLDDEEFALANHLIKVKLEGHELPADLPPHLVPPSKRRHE
B3: EH domain-containing protein 3 (Mus musculus), Q9QXY6 (parent)
chain: B1 partner
partner: B1 chain

Variants of: B1
Settings: with ehd3_mouse Ehd3, Q9QXY6

Row | effect of a mutation on the interaction | Variant
1 | with no effect | K315R;K511R

Variants of: B1
Settings: with ehd3_mouse Ehd3, Q9QXY6
Remark: another data set of the same source

Row | effect of a mutation on the interaction | Variant
2 | with no effect | K315R

Variants of: B1
Settings: with ehd3_mouse Ehd3, Q9QXY6
Remark: another data set of the same source

Row | effect of a mutation on the interaction | Variant
3 | with no effect | K511R

Variants of: B2
Settings: with ehd1_human EHD1, Q9H4M9

Row | effect of a mutation on the interaction | Variant
4 | with no effect | K511R
5 | with no effect | K315R;K511R
6 | with no effect | K315R

Variants of: B2
Settings: with ehd1_human EHD1, Q9H4M9
Remark: another data set of the same source

Row | effect of a mutation on the interaction | Variant
7 | decreasing interaction | K511R
8 | disrupting interaction | K315R;K511R

Variants of: B3
Settings: with ehd3_human EHD3, Q9NZN3

Row | effect of a mutation on the interaction | Variant
9 | decreasing interaction | K511R
10 | decreasing interaction | K315R;K511R

Variants of: B3
Settings: with ehd3_human EHD3, Q9NZN3
Remark: another data set of the same source

Row | effect of a mutation on the interaction | Variant
11 | with no effect | K315R;K511R
